We go through one molecule from PMC3690482 (Molecular and cellular endocrinology, 2013).

For the experiment, the target named is MET (mouse (endogenous in NLT), UniProt P16056 25-1379). Kind of experiment: co-IP.

B1: AXL (receptor, mouse (endogenous in NLT), UniProt Q00993 19-888, looked up)
chain: AHKDTQTEAGSPFVGNPGNITGARGLTGTLRCELQVQGEPPEVVWLRDGQILELADNTQTQVPLGEDWQDEWKVVSQLRISALQLSDAGEYQCMVHLEGRTFVSQPGFVGLEGLPYFLEEPEDKAVPANTPFNLSCQAQGPPEPVTLLWLQDAVPLAPVTGHSSQHSLQTPGLNKTSSFSCEAHNAKGVTTSRTATITVLPQRPHHLHVVSRQPTELEVAWTPGLSGIYPLTHCNLQAVLSDDGVGIWLGKSDPPEDPLTLQVSVPPHQLRLEKLLPHTPYHIRISCSSSQGPSPWTHWLPVETTEGVPLGPPENVSAMRNGSQVLVRWQEPRVPLQGTLLGYRLAYRGQDTPEVLMDIGLTREVTLELRGDRPVANLTVSVTAYTSAGDGPWSLPVPLEPWRPGQGQPLHHLVSEPPPRAFSWPWWYVLLGALVAAACVLILALFLVHRRKKETRYGEVFEPTVERGELVVRYRVRKSYSRRTTEATLNSLGISEELKEKLRDVMVDRHKVALGKTLGEGEFGAVMEGQLNQDDSILKVAVKTMKIAICTRSELEDFLSEAVCMKEFDHPNVMRLIGVCFQGSDREGFPEPVVILPFMKHGDLHSFLLYSRLGDQPVFLPTQMLVKFMADIASGMEYLSTKRFIHRDLAARNCMLNENMSVCVADFGLSKKIYNGDYYRQGRIAKMPVKWIAIESLADRVYTSKSDVWSFGVTMWEIATRGQTPYPGVENSEIYDYLRQGNRLKQPVDCLDGLYALMSRCWELNPRDRPSFAELREDLENTLKALPPAQEPDEILYVNMDEGGSHLEPRGAAGGADPPTQPDPKDSCSCLTAADVHSAGRYVLCPSTAPGPTLSADRGCPAPPGQEDGA
Take B1: the “AXL in the MET immunoprecipitate, fold of input lysate” value was found to be 0.6 fold.
